What was measured:
[1] = molecular target: T1, ProAgio (D1-CD2 variant 3) ( (human and rat D1-CD2 are …, UniProt P06729 25-206)); assay: SPR
[2] = molecular target: T1, ProAgio (D1-CD2 variant 3); assay: ELISA; without polyLys

B1: recombinant integrin αvβ3 (commercial) (receptor)
chain 1: FNLDVDSPAEYSGPEGSYFGFAVDFFVPSASSRMFLLVGAPKANTTQPGIVEGGQVLKCDWSSTRRCQPIEFDATGNRDYAKDDPLEFKSHQWFGASVRSKQDKILACAPLYHWRTEMKQEREPVGTCFLQDGTKTVEYAPCRSQDIDADGQGFCQGGFSIDFTKADRVLLGGPGSFYWQGQLISDQVAEIVSKYDPNVYSIKYNNQLATRTAQAIFDDSYLGYSVAVGDFNGDGIDDFVSGVPRAARTLGMVYIYDGKNMSSLYNFTGEQMAAYFGFSVAATDINGDDYADVFIGAPLFMDRGSDGKLQEVGQVSVSLQRASGDFQTTKLNGFEVFARFGSAIAPLGDLDQDGFNDIAIAAPYGGEDKKGIVYIFNGRSTGLNAVPSQILEGQWAARSMPPSFGYSMKGATDIDKNGYPDLIVGAFGVDRAILYRARPVITVNAGLEVYPSILNQDNKTCSLPGTALKVSCFNVRFCLKADGKGVLPRKLNFQVELLLDKLKQKGAIRRALFLYSRSPSHSKNMTISRGGLMQCEELIAYLRDESEFRDKLTPITIFMEYRLDYRTAADTTGLQPILNQFTPANISRQAHILLDCGEDNVCKPKLEVSVDSDQKKIYIGDDNPLTLIVKAQNQGEGAYEAELIVSIPLQADFIGVVRNNEALARLSCAFKTENQTRQVVCDLGNPMKAGTQLLAGLRFSVHQQSEMDTSVKFDLQIQSSNLFDKVSPVVSHKVDLAVLAAVEIRGVSSPDHVFLPIPNWEHKENPETEEDVGPVVQHIYELRNNGPSSFSKAMLHLQWPYKYNNNTLLYILHYDIDGPMNCTSDMEINPLRIKISSLQTTEKNDTVAGQGERDHLITKRDLALSEGDIHTLGCGVAQCLKIVCQVGRLDRGKSAILYVKSLLWTETFMNKENQNHSYSLKSSASFNVIEFPYKNLPIEDITNSTLVTTNVTWGIQPAPMPV
chain 2: GPNICTTRGVSSCQQCLAVSPMCAWCSDEALPLGSPRCDLKENLLKDNCAPESIEFPVSEARVLEDRPLSDKGSGDSSQVTQVSPQRIALRLRPDDSKNFSIQVRQVEDYPVDIYYLMDLSYSMKDDLWSIQNLGTKLATQMRKLTSNLRIGFGAFVDKPVSPYMYISPPEALENPCYDMKTTCLPMFGYKHVLTLTDQVTRFNEEVKKQSVSRNRDAPEGGFDAIMQATVCDEKIGWRNDASHLLVFTTDAKTHIALDGRLAGIVQPNDGQCHVGSDNHYSASTTMDYPSLGLMTEKLSQKNINLIFAVTENVVNLYQNYSELIPGTTVGVLSMDSSNVLQLIVDAYGKIRSKVELEVRDLPEELSLSFNATCLNNEVIPGLKSCMGLKIGDTVSFSIEAKVRGCPQEKEKSFTIKPVGFKDSLIVQVTFDCDCACQAQAEPNSHRCNNGNGTFECGVCRCGPGWLGSQCECSEEDYRPSQQDECSPREGQPVCSQRGECLCGQCVCHSSDFGKITGKYCECDDFSCVRYKGEMCSGHGQCSCGDCLCDSDWTGYYCNCTTRTDTCMSSNGLLCSGRGKCECGSCVCIQPGSYGDTCEKCPTCPDACTFKKECVECKKFDRGALHDENTCNRYCRDEIESVKELKDTGKDAVNCTYKNEDDCVVRFQYYEDSSGKSILYVVEEPECPKGPD
- Kd [1]: 2 nM
- Kd [2]: 35 nM

Reference: publication PMC4895024 (2016)
